The numbers were not newly measured in PMC3436762, which cites them from elsewhere.

The target in the data set is TRAIL (Homo sapiens) (UniProt P50591). As to conditions: cited from earlier work.
UniProt P50591, sequence (P50591 whole entry): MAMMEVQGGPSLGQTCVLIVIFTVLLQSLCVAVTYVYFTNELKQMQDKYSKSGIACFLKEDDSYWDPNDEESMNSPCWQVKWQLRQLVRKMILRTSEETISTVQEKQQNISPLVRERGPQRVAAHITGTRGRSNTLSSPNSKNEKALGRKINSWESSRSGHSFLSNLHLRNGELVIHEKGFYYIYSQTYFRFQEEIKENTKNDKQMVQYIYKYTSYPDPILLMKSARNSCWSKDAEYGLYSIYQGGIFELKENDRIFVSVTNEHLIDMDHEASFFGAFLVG

One may read the Kd as the equilibrium constant for the complex coming apart. Take osteoprotegerin (from UniProt O00300): the Kd was 400 nM.
